From patent US20240376224A1 (University of California, published 2024) come the findings set out here.

In assay [1] the target is T1, NTF immobilized via the N-termini (human, UniProt Q9H5V8 30-367, limits assumed).
T1 sequence: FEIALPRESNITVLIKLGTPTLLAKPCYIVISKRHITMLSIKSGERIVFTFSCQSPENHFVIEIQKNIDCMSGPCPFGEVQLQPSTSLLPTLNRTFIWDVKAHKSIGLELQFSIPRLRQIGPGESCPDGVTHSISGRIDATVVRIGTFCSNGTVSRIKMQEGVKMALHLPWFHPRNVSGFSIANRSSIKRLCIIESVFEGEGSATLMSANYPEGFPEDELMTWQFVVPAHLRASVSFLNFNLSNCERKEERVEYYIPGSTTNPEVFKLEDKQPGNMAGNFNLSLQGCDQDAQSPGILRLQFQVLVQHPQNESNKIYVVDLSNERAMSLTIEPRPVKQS
Kind of assay: multipoint BLI (Octet), His-NTF on a Ni-NTA biosensor, CL03 Fab at 100, 50, 25, 12.5, 6.25 nM. As to the method: (§1) BLI experiments were performed using an Octet RED384 instrument (ForteBio). Biotinylated proteins were immobilized on a streptavidin (SA) biosensor and His-tagged proteins were immobilized on a Ni-NTA biosensor. Different concentrations of analyte in PBS pH 7.4+0.05% Tween-20+0.2% BSA (PBSTB) were used as analyte. Affinities (KDS) were calculated from a global fit (1:1) of the data using the Octet RED384 software.
(§2) To investigate the binding mechanism of CL03, the binding of CL03 to different CDCP1 antigens was measured by BLI using standard methods. In instances when the C-termini of the NTF was immobilized either via an Fc domain or directly to the biosensor surface, there was no binding of CL03 (FIG. 6A-FIG. 6B). In instances when the NTF was immobilized via the N-termini, CL03 bound NTF at similar affinity to the full c-CDCP1 antigen (FIG. 6B-FIG. 6C). Additionally, it was observed that CL03 recognized an uncleaved CDCP1 variant where a 16-amino acid linker was inserted between CUB1 and CUB2 at the R368/K369 proteolysis site (FIG. 6D).
(BLI is a label-free optical method that tracks binding on a fibre tip over time.)

Another assay concerns the target T2, c-CDCP1-Fc (Cut 2) (human, UniProt Q9H5V8 30-368; Q9H5V8 369-667).
T2 construct: Co-transfection of NTF and CTF-Fc plasmids; not shown: Fc domain
T2 sequence 1: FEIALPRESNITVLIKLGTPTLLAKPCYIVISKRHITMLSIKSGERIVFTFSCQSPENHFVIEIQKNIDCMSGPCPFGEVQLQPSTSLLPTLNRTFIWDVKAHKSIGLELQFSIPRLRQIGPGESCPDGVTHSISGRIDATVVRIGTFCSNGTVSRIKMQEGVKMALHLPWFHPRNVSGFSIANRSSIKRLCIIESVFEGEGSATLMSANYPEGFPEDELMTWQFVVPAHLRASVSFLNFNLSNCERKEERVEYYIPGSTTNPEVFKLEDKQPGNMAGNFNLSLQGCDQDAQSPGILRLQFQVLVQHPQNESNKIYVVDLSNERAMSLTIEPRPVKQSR
T2 sequence 2: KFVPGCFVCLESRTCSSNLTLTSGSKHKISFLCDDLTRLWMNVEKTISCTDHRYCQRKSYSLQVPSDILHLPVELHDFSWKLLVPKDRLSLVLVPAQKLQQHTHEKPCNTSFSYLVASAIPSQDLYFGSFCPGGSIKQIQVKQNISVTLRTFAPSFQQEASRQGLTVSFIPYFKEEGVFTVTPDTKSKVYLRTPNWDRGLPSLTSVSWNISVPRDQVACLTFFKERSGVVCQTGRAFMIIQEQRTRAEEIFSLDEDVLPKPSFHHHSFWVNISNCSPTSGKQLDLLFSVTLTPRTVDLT
The experiment in a line: BLI (Octet), table of in vitro binding affinities. As to the method:
as §1

A further assay addresses T3, c-CDCP1-Fc (Cut 1) (human, UniProt Q9H5V8 30-365; Q9H5V8 366-667).
T3 construct: Co-transfection of NTF and CTF-Fc plasmids; not shown: Fc domain
T3 sequence 1: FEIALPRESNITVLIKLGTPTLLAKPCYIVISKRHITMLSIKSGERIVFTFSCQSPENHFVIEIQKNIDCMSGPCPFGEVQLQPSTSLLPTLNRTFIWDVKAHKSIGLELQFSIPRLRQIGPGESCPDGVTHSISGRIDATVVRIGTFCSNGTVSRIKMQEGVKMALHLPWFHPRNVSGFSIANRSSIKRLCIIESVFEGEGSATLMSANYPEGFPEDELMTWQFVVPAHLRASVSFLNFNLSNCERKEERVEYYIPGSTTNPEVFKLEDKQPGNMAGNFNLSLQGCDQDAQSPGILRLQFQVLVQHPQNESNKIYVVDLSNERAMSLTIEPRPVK
T3 sequence 2: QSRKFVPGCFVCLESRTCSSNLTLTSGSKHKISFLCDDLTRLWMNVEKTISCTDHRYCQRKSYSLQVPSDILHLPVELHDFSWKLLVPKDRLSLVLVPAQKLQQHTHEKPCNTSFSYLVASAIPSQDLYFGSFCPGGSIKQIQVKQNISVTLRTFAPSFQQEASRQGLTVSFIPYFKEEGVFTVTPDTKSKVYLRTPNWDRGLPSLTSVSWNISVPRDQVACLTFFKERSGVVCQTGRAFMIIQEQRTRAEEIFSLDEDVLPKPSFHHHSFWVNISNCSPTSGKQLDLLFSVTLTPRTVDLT
Kind of assay: BLI (Octet), table of in vitro binding affinities. The procedure: as §1

Another assay addresses T4, c-CDCP1-Fc (Cut 3) (human, UniProt Q9H5V8 30-369; Q9H5V8 370-667).
T4 construct: Co-transfection of NTF and CTF-Fc plasmids; not shown: Fc domain
T4 sequence 1: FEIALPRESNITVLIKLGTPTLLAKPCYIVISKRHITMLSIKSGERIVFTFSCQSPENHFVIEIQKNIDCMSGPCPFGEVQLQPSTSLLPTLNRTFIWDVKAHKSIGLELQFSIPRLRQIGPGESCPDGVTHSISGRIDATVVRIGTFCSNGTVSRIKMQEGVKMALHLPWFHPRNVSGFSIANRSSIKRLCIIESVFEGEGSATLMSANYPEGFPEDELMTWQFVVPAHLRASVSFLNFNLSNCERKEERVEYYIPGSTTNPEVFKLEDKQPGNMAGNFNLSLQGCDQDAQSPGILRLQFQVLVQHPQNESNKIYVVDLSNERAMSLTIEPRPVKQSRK
T4 sequence 2: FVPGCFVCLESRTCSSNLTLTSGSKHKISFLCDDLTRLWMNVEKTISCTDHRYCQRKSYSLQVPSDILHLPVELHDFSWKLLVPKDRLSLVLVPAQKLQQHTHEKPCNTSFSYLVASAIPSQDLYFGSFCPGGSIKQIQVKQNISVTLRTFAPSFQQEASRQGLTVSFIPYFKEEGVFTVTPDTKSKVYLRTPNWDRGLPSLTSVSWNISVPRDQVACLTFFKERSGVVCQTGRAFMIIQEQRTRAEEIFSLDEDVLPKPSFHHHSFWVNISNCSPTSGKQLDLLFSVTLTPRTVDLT
Kind of assay: BLI (Octet), table of in vitro binding affinities. The procedure: as §1

In assay [2] the target is T5, c-CDCP1 (Cut 3) ectodomain (human, UniProt Q9H5V8 30-369; Q9H5V8 370-667).
T5 construct: Made by co-transfection of NTF and CTF plasmids, purified by Ni-NTA (tag not described); also called cCDCP1 ECD cut 3
T5 sequence 1: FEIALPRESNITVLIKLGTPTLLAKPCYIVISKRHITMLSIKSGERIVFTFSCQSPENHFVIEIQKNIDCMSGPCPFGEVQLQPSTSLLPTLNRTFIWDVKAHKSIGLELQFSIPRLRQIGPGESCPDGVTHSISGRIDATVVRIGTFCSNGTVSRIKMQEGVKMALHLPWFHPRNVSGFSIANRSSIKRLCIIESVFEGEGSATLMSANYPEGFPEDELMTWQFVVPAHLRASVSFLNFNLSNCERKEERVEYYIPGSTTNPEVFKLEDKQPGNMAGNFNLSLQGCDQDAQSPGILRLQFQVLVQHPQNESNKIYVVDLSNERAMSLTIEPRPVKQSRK
T5 sequence 2: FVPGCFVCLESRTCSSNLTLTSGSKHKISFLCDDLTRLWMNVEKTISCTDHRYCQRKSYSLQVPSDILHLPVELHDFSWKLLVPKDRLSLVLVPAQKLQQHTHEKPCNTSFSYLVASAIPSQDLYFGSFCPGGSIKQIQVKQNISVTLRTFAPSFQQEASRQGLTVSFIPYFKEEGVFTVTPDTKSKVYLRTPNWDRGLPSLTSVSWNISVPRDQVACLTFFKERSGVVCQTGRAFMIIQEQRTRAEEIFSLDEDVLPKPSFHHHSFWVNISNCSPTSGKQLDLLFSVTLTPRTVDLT
Kind of assay: multipoint BLI (Octet), c-CDCP1 (Cut 3) held by its His-tag on a Ni-NTA biosensor, CL03 Fab at 100, 50, 25, 12.5, 6.25 nM. As to the method: as §1, §2

B1: CL03 Fab (Fab, V domains shown)
VH: EVQLVESGGGLVQPGGSLRLSCAASGFNFSSYSIHWVRQAPGKGLEWVASIYPYSGSTYYADSVKGRFTISADTSKNTAYLQMNSLRAEDTAVYYCARQSHSYYSHTWWVSYGMDYWGQGTLVTVSS
VL: DIQMTQSPSSLSASVGDRVTITCRASQSVSSAVAWYQQKPGKAPKLLIYSASSLYSGVPSRFSGSRSGTDFTLTISSLQPEDFATYYCQQSGQRPITFGQGTKVEIKR
notes: also called Fab CL03
As to B1, the Kd (in general, the equilibrium constant for the complex coming apart) in assay [1] worked out at 10.5 nM; in the assay with c-CDCP1-Fc (Cut 2), 3.91 nM; in the assay with c-CDCP1-Fc (Cut 1), 2.26 nM; in the assay with c-CDCP1-Fc (Cut 3), 3.59 nM; in assay [2], 9.74 nM. Moreover, the koff (as a rule, the first-order rate constant of dissociation) with c-CDCP1-Fc (Cut 1) was found to be 0.000648 s⁻¹. The on-rate constant (kon) (in general, the second-order rate constant of association) in the assay with c-CDCP1-Fc (Cut 1) amounted to 288000 M⁻¹ s⁻¹.
